In one assay the test system is Bifidobacterium dentium. The assay can be described thus: Flow cytometry binding to microbiome strain. To be noted: fixed cells; 15 μg/mL Strep-tagged-hIntL-1, 10 mM CaCl2 vs EDTA control. The procedure: (§1) The inventors have begun to examine the binding of hIntL-1 to bacteria known to reside in the human intestine. Strains of relevant bacteria were grown anaerobically. The samples are fixed using 1% formaldehyde for 30 min on ice. […] Fixed cells are exposed to Strep-tagged (IBS Lifesciences) -hIntL-1. The Strep-tag not necessary for function but added because it facilitates purification and detection. Cells were analyzed by flow cytometry on a BD FACSCalibur or LSRII. Bacterial cells were identified using either propidium iodide (PI) or DAPI. An anti-Strep-tag antibody conjugated to the fluorophore Oyster 645 nm was used to detect the population of bacteria bound by hIntL-1.
(§2) To determine whether observed binding is dependent on hIntL-1 interaction with microbial glycans, the inventors take advantage of critical role of calcium ions in hIntL-1 binding. The addition of the calcium ion chelator EDTA, which sequesters bound calcium ions, serves as an important specificity control. Fixed bacteria are incubated in 20 mM HEPES (pH 7.2), 150 mM NaCl, 10 mM CaCl2, 15 μg/mL Strep-tagged-hIntL-1, 0.1% bovine serum albumin (BSA), 0.05% Tween-20, 2 μg/mL StrepMAB-Classic conjugated to Oyster 645 (IBA Lifesciences, cat. no.: 2-1555-050). For the cells incubated in the absence of calcium ions, the following solution is used 20 mM HEPES (pH 7.2), 150 mM NaCl, 5 mM EDTA, 15 μg/mL Strep-tagged-hIntL-1, 0.1% bovine serum albumin (BSA), 0.05% tween-20, 2 μg/mL StrepMAB-Classic conjugated to Oyster 645 (IBA Lifesciences, cat. no.: 2-1555-050). Cell samples were analyzed by flow cytometry consecutively using an identical instrument setting. The percentages of unstained cells, cells stained in the presence of calcium ions, and cells stained in the presence of EDTA were directly compared. Increased hIntL-1 binding signal in the presence of calcium ions when compared to unstained cells or the EDTA sample indicates specific binding to the surface glycans of that strain of bacteria. FIG. 17 is representative of the data obtained. A list of bacteria bound by hIntL-1 can be found in Table 1. […]
Background: Flow cytometry measures light scatter and fluorescence of single cells or particles in a stream.

Another assay relates to Lactobacillus reuteri. Kind of assay: Flow cytometry binding to microbiome strain. The settings on record: fixed cells; 15 μg/mL Strep-tagged-hIntL-1, 10 mM CaCl2 vs EDTA control. The procedure: as §1, §2
Assay [1] relates to Bacteroides xylanisolvens. The assay can be described thus: Flow cytometry binding to microbiome strain. To be noted: fixed cells; 15 μg/mL Strep-tagged-hIntL-1, 10 mM CaCl2 vs EDTA control. The procedure:
as §1, §2

The nature of assay [2]: hIntL-1 carbohydrate binding ELISA-like assay.
The nature of assay [3]: hIntL-1 surface plasmon resonance (SPR). In kind it is binding. The procedure: All hIntL-1 SPR was performed on a ProteOn XPR36 (Bio-Rad) at the University of Wisconsin-Madison Department of Biochemistry Biophysics Instrumentation Facility (BIF). To measure hIntL-1 binding, ProteOn NLC sensor chips (Bio-Rad) (NeutrAvidin coated chips) were used to capture carbohydrate-biotin ligand. All experiments presented here were conducted at surface saturated levels of ligand, ˜200 RU. In all experiments, captured biotin served as a control. Samples containing purified hIntL-1 were prepared by serial dilution into hIntL-1 SPR running buffer (20 mM HEPES (7.4) 150 mM NaCl, 1 mM CaCl2, and 0.005% tween-20). Surfaces were regenerated with short injections of 10 mM HCl. All data was interspot corrected and processed using the Bio-Rad ProteOn software package.

A short description of assay [4]: Microbial Glycan Microarray (MGMv2). It is filed as binding, E. coli. To be noted: Strep-hIntL-1 50 μg/mL; terminal α-Galf residue. The protocol:
Strep-hIntL-1 was used to interrogate the Microbial Glycan Microarray version 2 (MGMv2). Construction of the MGMv2 is previously described. Briefly, bacterial polysaccharide samples were dissolved and diluted to 0.5 mg/mL in printing buffer (150 mM sodium phosphate buffer (8.4)+0.005% Tween-20). Samples were immobilized on NETS-activated glass slides (SlideH, Schott/Nexterion) using a MicroGrid II (Digilab) contact microarray printer equipped with SMP-4B printing pins (Telechem). Six replicates of each bacterial glycan sample were printed. Covalent coupling of glycans to the surface was facilitated by incubation for 1 hour postprint at 100% relative humidity. The remaining reactive NHS-moieties were quenched using a blocking solution (50 mM ethanolamine in 50 mM borate buffer (9.2)). Blocked slides were stored at −20° C. until assays were performed. […] The Strep-Tag® II on bound hIntL-1 was detected using StrepMAB-Classic Chromeo647 (10 μg/mL, IBA GmbH Lifesciences) diluted in binding buffer applied directly to the array surface and allowed to incubate for 1 hour. […] Signal data was calculated as the average of 4 values after removing the high and low values of the 6 replicates. Data were plotted using Excel (Microsoft) as average Relative Fluorescence Units (RFU) versus print identification number. […]

B1: hIntL-1: human lectin intelectin-1, accession no. Q8WWA0; recombinant disulfide-linked trimer from HEK 293T cells, used also N-terminally Strep-tagged (Strep-hIntL-1) (protein, listed as Homo sapiens)
chain: MNQLSFLLFLIATTRGWSTDEANTYFKEWTCSSSPSLPRSCKEIKDECPSAFDGLYFLRTENGVIYQTFCDMTSGGGGWTLVASVHENDMRGKCTVGDRWSSQQGSKAVYPEGDGNWANYNTFGSAEAATSDDYKNPGYYDIQAKDLGIWHVPNKSPMQHWRNSSLLRYRTDTGFLQTLGHNLFGIYQKYPVKYGEGKCWTDNGPVIPVVYDFGDAQKTASYYSPYGQREFTAGFVQFRVFNNERAANALCAGMRVTGCNTEHHCIGGGGYFPEASPQQCGDFSGFDWSGYGTHVGYSSSREITEAAVLLFYR
Turning to B1, in the assay on Bifidobacterium dentium, the “binding of hIntL-1 to Bifidobacterium dentium by flow cytometry” value was “binds”. The “binding of hIntL-1 to Lactobacillus reuteri by flow cytometry” value with Lactobacillus reuteri is given as “binds”. In addition, in assay [1], the “binding of hIntL-1 to Bacteroides xylanisolvens by flow cytometry” value was “not”. Moreover, the “binding to β-Galf on addition of EDTA” value in assay [2] (hIntL-1 conditioned HEK culture media, addition of 25 mM EDTA) is listed as “completely abolished binding”. Moreover, the Kd in assay [2] (trimeric hIntL-1, ELISA-like assay, 10 mM CaCl2, read-out: avidity (apparent Kd) for immobilized β-Galf) was determined as 85 ± 14 nM. Further, the “SPR response to immobilized β-galactopyranose” value in assay [3] (attributed to the extended anomeric alkyl linker) is on record as “small response”. Besides, the “binding to immobilized β-Galf by SPR” value in assay [3] (immobilized carbohydrate-biotin ligand, 1 mM CaCl2) is “robust binding”. Also, in assay [4], the “signal on microbial glycan array” value amounted to 49 RFU.

The record behind these values is patent US10413588B2, “Probiotic function of human intelectin” (Wisconsin Alumni Research Foundation, priority 2015, dated 2019).
